In PMC8421143 (Nucleic Acids Research, 2021):

Molecular target: recombinant full-length human BLM with a C-terminal His6-tag (human, UniProt P54132 1-1417)
Test: co-IP

Chain of recombinant full-length human BLM with a C-terminal His6-tag (P54132 whole entry): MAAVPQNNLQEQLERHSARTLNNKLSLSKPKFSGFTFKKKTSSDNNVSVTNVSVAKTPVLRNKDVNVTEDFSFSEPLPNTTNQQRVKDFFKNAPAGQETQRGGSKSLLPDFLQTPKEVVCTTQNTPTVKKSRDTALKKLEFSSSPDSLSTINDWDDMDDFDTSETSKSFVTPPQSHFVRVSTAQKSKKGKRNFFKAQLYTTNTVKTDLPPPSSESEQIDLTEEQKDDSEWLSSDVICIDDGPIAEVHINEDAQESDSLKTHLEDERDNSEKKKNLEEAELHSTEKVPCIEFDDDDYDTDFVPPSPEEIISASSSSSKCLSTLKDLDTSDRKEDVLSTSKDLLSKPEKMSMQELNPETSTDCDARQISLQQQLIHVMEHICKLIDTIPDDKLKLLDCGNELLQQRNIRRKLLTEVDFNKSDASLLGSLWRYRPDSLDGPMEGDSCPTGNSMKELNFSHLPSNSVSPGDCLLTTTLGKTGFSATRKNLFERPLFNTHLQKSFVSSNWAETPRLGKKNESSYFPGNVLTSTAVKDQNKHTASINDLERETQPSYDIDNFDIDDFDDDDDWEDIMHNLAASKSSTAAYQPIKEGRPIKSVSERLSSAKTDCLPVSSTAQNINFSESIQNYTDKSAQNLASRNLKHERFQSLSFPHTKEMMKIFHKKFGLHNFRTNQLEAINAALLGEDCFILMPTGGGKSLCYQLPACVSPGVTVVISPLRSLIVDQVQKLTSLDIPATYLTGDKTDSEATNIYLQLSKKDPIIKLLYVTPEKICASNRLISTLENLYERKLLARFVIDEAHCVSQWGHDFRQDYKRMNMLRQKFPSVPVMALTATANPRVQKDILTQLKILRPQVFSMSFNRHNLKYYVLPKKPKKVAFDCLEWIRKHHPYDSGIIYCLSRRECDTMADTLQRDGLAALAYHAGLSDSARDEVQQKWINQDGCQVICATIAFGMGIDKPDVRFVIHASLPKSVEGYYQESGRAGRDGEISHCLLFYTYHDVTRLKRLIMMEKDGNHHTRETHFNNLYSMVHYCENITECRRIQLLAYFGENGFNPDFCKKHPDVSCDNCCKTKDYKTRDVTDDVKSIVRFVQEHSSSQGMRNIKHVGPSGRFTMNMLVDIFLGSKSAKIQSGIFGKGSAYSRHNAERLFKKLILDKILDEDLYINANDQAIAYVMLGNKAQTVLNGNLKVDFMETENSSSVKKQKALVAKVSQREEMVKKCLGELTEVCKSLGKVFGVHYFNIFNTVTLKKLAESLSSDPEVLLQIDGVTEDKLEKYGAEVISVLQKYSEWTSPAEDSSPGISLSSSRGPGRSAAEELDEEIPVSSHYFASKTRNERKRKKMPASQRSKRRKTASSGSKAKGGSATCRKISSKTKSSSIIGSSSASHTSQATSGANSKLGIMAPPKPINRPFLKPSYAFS

B1: recombinant full length human Mcm6 from wheat germ (natural protein)
chain: MDLAAAAEPGAGSQHLEVRDEVAEKCQKLFLDFLEEFQSSDGEIKYLQLAEELIRPERNTLVVSFVDLEQFNQQLSTTIQEEFYRVYPYLCRALKTFVKDRKEIPLAKDFYVAFQDLPTRHKIRELTSSRIGLLTRISGQVVRTHPVHPELVSGTFLCLDCQTVIRDVEQQFKYTQPNICRNPVCANRRRFLLDTNKSRFVDFQKVRIQETQAELPRGSIPRSLEVILRAEAVESAQAGDKCDFTGTLIVVPDVSKLSTPGARAETNSRVSGVDGYETEGIRGLRALGVRDLSYRLVFLACCVAPTNPRFGGKELRDEEQTAESIKNQMTVKEWEKVFEMSQDKNLYHNLCTSLFPTIHGNDEVKRGVLLMLFGGVPKTTGEGTSLRGDINVCIVGDPSTAKSQFLKHVEEFSPRAVYTSGKASSAAGLTAAVVRDEESHEFVIEAGALMLADNGVCCIDEFDKMDVRDQVAIHEAMEQQTISITKAGVKATLNARTSILAAANPISGHYDRSKSLKQNINLSAPIMSRFDLFFILVDECNEVTDYAIARRIVDLHSRIEESIDRVYSLDDIRRYLLFARQFKPKISKESEDFIVEQYKHLRQRDGSGVTKSSWRITVRQLESMIRLSEAMARMHCCDEVQPKHVKEAFRLLNKSIIRVETPDVNLDQEEEIQMEVDEGAGGINGHADSPAPVNGINGYNEDINQESAPKASLRLGFSEYCRISNLIVLHLRKVEEEEDESALKRSELVNWYLKEIESEIDSEEELINKKRIIEKVIHRLTHYDHVLIELTQAGLKGSTEGSESYEEDPYLVVNPNYLLED
  binding result: binds
